The target in this experiment is T1, mixed lineage kinase domain-like pseudokinase (MLKL) (human (endogenous in platelets)), Q8NB16.
T1 chain: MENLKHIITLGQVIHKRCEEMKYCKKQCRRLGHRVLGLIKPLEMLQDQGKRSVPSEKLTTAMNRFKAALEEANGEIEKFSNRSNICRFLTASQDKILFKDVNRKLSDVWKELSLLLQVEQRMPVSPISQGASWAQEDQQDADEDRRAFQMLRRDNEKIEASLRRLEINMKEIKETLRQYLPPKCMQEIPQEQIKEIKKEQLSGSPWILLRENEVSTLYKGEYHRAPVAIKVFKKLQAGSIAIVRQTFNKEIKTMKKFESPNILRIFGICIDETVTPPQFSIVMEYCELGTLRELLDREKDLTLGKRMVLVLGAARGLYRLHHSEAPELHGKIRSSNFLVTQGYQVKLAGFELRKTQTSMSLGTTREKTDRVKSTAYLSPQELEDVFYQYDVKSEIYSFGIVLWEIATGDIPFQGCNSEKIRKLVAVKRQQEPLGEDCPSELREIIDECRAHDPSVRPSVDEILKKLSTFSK
The experiment in a line: western blot of platelets. The following applies: remark: other sources report otherwise. Background: In western blotting, separated proteins are transferred to a membrane and probed.

B1: mixed lineage kinase domain-like pseudokinase (MLKL), Q8NB16 1-471 (natural protein)
chain: T1 chain
One may read the stoichiometry N as the number of molecules, sites or subunits per partner or assembly. For B1, the stoichiometry N was determined as 8.

Source of the values: publication PMC8409903.
